Test results taken from patent US8642834B2, “Methods for the identification of agents that inhibit mesenchymal-like tumor cells or their formation” (OSI Pharmaceuticals, LLC, priority 2009, dated 2014).

Test system: CFPAC-1 cells
Test: Induction of EMT by growth factors and cytokines, E-cadherin and vimentin immunoblotting
Assay type: cell-based, human
Conditions: CFPAC-1 cells treated 7 days with ligand
Procedure: The CFPAC1 cell line was cultured in DMEM media (Gibco #11960) supplemented with 10% FBS (Sigma), 2 mM L Glutamine (Gibco), at 37° C., 5% CO2. For 7 day treatments, cells were seeded on tissue culture plastic in complete growth media and allowed to attach overnight at cell densities that would provide approximately 60-80% confluence at end of experiment. Ligand and/or inhibitor was added the following day (Day 0) in complete growth media and incubated at 37° C., 5% CO2. Ligand source and concentrations used are as follows: [1] From R&D systems, SDF-1α (stromal derived factor-1 alpha) at 100 ng/ml, TRANCE (TNF-related activation induced cytokine) at 50 ng/ml, FGF1 (fibroblast growth factor acidic) at 10 ng/ml, FGF2 (fibroblast growth factor basic) at 10 ng/ml, BMP4 (bone morphogenetic protein 4) at 100 ng/ml, BMP7 (bone morphogenetic protein 7) at 100 ng/ml, IGF2 (insulin-like growth factor 2) at 100 ng/ml, OSM (Oncostatin M) at 100 ng/ml, NRG1 (Neuregulin-1) at 50 ng/ml, PDGFaa (Platelet derived growth factor a) at 50 ng/ml, PDGFbb (platelet derive growth factor b) at 30 ng/ml, Ang2 (Angiopoeitin 2) at 400 ng/ml, amphiregulin at 100 ng/ml, HMGB 1 (Human high-mobility group box 1 protein) at 50 ng/ml; [2] From Genscript, LIF (Leukemia inhibitory factor) at 20 ng/ml, GM-CSF (Granulocyte macrophage colony stimulating factor) at 25 ng/ml, M-CSF (Macrophage colony stimulating factor) at 50 ng/ml; [3] From Anaspec, PAR1 (Protease activated receptor 1 agonist) at 100 μM; PAR2 (Protease activated receptor 2 agonist; peptide SLIGKV-NH2, Cat. No. 60217-1) at 100 μM; PAR4 (Protease activated receptor […] agonist; peptide AYPGKF-NH2, Cat. No. 60218-1) at 100 μM; [4] From Peprotech, HGF (Hepatocyte Growth Factor) at 100 ng/ml; IL-31 (Interleukin-31) at 50 ng/ml, IL-33 (Interleukin-33) at 50 ng/ml, IL1-a (Interleukin-1 alpha) at 10 ng/ml, CTGF (Connective tissue growth factor) at 20 ng/ml, WISP1 (Wnt-1 inducible signaling pathway protein) at 20 ng/ml, PTHrP ([…] hormone-related protein) at 50 ng/ml, MCP1 (monocyte chemotactic protein-1) at 50 ng/ml; and [5] from Sigma, Fulvestrant at 1 μM. Fresh medium containing ligand and/or inhibitor was added 3-4 days after initial dose, and at Day 7 cells were harvested for western blot analysis.
Cells were harvested by washing once with PBS, and lysing on ice for 10 minutes with scraping (using a Cell Lifter, Corning Inc. #3008) in ice cold RIPA buffer (Sigma R0278) containing Protease inhibitor (Sigma P8340), Phosphatase inhibitors (Sigma P2850, P5726) and 200 μM Sodium Vanadate. Supernatents were micro-centrifuged at max speed, 4° C. for 10 minutes. Protein content was quantitated using the BCA method (Pierce #23225) and samples were normalized to total protein in Laemli buffer and heated at 100° C. for 10 minutes. SDS PAGE was run using a Bis-Tris gel system (Invitrogen NuPAGE) with MOPS buffer (Invitrogen NP0001), transferred onto nitrocellulose using the iBLOT system (Invitrogen) and blocked in PBS-T (0.1% Tween 20), 5% non-fat milk or BSA in guidance with primary Ab supplier requirements. All primary antibodies were incubated overnight at 4° C. in PBS-T (0.1% Tween 20) in either 5% non-fat milk or BSA, diluted to the following working dilutions: anti E Cadherin (Santa Cruz #sc-21791) 1:500 dilution; anti Vimentin (BD Biosciences #550513) 1:2000 dilution;); anti GAPDH HRP conjugate (Santa Cruz sc-25778) 1:1000 dilution; anti β-Actin (Sigma, A5441) 1:10,000 dilution. […]

B1: BMP4: bone morphogenetic protein 4, R&D systems, 100 ng/ml (protein, UniProt P12644 293-408, looked up)
Bone morphogenetic protein 4: SPKHHSQRARKKNKNCRRHSLYVDFSDVGWNDWIVAPPGYQAFYCHGDCPFPLADHLNSTNHAIVQTLVNSVNSSIPKACCVPTELSAISMLYLDEYDKVVLKNYQEMVVEGCGCR
Induction of EMT (E-cadherin down, vimentin up): Partial EMT

B2: IL-33: Interleukin-33, Peprotech, 50 ng/ml (protein, UniProt O95760 1-270, looked up)
Interleukin-33: MKPKMKYSTNKISTAKWKNTASKALCFKLGKSQQKAKEVCPMYFMKLRSGLMIKKEACYFRRETTKRPSLKTGRKHKRHLVLAACQQQSTVECFAFGISGVQKYTRALHDSSITGISPITEYLASLSTYNDQSITFALEDESYEIYVEDLKKDEKKDKVLLSYYESQHPSNESGDGVDGKMLMVTLSPTKDFWLHANNKEHSVELHKCEKPLPDQAFFVLHNMHSNCVSFECKTDPGVFIGVKDNHLALIKVDSSENLCTENILFKLSET
Induction of EMT (E-cadherin down, vimentin up): Partial EMT

B3: BMP7: bone morphogenetic protein 7, R&D systems, 100 ng/ml (protein, UniProt P18075 293-431, looked up)
Bone morphogenetic protein 7: STGSKQRSQNRSKTPKNQEALRMANVAENSSSDQRQACKKHELYVSFRDLGWQDWIIAPEGYAAYYCEGECAFPLNSYMNATNHAIVQTLVHFINPETVPKPCCAPTQLNAISVLYFDDSSNVILKKYRNMVVRACGCH
Induction of EMT (E-cadherin down, vimentin up): Partial EMT

B4: CTGF: Connective tissue growth factor, Peprotech, 20 ng/ml (protein, UniProt P29279 27-349, looked up)
CCN family member 2: QNCSGPCRCPDEPAPRCPAGVSLVLDGCGCCRVCAKQLGELCTERDPCDPHKGLFCHFGSPANRKIGVCTAKDGAPCIFGGTVYRSGESFQSSCKYQCTCLDGAVGCMPLCSMDVRLPSPDCPFPRRVKLPGKCCEEWVCDEPKDQTVVGPALAAYRLEDTFGPDPTMIRANCLVQTTEWSACSKTCGMGISTRVTNDNASCRLEKQSRLCMVRPCEADLEENIKKGKKCIRTPKISKPIKFELSGCTSMKTYRAKFCGVCTDGRCCTPHRTTTLPVEFKCPDGEVMKKNMMFIKTCACHYNCPGDNDIFESLYYRKMYGDMA
Induction of EMT (E-cadherin down, vimentin up): Partial EMT
